Target: T1, WT-EphB1-YFP (mouse EphB1 C-terminal YFP-tagged) (mouse, UniProt Q8CBF3 18-984)
T1 sequence (looked up): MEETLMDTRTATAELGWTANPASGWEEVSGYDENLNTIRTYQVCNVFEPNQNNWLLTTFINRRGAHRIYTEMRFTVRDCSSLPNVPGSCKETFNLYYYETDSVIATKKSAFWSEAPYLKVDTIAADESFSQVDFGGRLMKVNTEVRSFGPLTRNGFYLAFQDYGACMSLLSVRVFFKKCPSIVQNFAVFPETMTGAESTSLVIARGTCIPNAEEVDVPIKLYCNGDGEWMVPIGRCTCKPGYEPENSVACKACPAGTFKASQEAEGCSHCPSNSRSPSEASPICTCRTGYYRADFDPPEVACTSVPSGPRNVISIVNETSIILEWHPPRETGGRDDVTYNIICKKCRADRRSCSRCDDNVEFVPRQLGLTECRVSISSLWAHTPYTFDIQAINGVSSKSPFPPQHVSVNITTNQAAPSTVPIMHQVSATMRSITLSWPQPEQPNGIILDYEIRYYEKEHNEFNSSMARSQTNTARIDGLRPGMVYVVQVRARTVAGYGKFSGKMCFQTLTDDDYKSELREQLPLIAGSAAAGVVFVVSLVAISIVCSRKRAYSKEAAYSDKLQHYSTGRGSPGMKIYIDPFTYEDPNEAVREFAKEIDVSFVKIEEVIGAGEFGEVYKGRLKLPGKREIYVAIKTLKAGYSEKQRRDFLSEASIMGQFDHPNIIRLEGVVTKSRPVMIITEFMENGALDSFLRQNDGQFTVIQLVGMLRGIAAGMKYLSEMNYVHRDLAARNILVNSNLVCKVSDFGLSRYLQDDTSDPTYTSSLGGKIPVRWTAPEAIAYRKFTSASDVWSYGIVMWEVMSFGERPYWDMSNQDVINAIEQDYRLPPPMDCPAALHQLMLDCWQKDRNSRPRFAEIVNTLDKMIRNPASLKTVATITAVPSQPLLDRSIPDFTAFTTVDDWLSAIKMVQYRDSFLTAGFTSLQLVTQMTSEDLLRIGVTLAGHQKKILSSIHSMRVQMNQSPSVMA
Assay: FRET or BRET

B1: WT-Cav-1-CFP (C-terminal CFP-tagged Cav-1) (natural protein, UniProt Q03135 1-178, looked up)
chain: MSGGKYVDSEGHLYTVPIREQGNIYKPNNKAMADELSEKQVYDAHTKEIDLVNRDPKHLNDDVVKIDFEDVIAEPEGTHSFDGIWKASFTTFTVTKYWFYRLLSALFGIPMALIWGIYFAILSFLHIWAVVPCIKSFLIEIQCISRVYSIYVHTVCDPLFEAVGKIFSNVRINLQKEI
  fold FRET intensity against EphB1^∆808-815-YFP with WT-Cav-1-CFP: 4 fold
